Source: patent publication US20260055369A1, “METHOD FOR GENERATING CELLS OF THE T CELL LINEAGE WITH ENGINEERING BROADLY REACTIVE HUMAN NOTCH LIGAND” (H. Lee Moffitt Cancer Center and Research Institute, Inc., priority 2022, published 2026)

Columns and labels:
Notch1 [1] = experiment: U2OS luciferase reporter assay, ligands on streptavidin plates; type: cell-based, human; details: 50 nM immobilized
Method: (§1) For U2OS reporter cells, approximately 5×10E5 cells were plated into 6-well plates (Falcon) and let to adhere overnight at 37° C., 5% CO2 in DMEM media (Cytiva). On day two, media was replaced with serum-free DMEM and cells transfected with luciferase vectors. Cationic lipoplexes were generated for 15 min at room temperature by mixing 10 μL of Lipofectamine 2000 (Invitrogen), 2.5 μg of Gal4-firefly luciferase reporter, and 50 ng of pRL-TK Renilla luciferase vector as internal control (ratio 1:5, Lipo:DNA). On day three, streptavidin plates were coupled with DLL4 ligands like described above using 10-fold serial dilutions starting at 50 nM, and transfected U2OS cells were detached with Trypsin-EDTA, washed with DPBS, and counted in the microscope. Twenty-thousand reporter cells were added to wells using 200 μL of DMEM media containing 2 μg/mL of doxycycline (Sigma) to induce Notch-Gal4 expression. Next, signaling plates were incubated for 24 hours at 37° C. and 5% CO2. On day four, luciferase firefly and Renilla signals were determined with Dual-Glo luciferase assay system (Promega) using a GloMax luminometer (Promega). A luminescence ratio firefly:Renilla was determined for every well and normalized to the signal of a non-related control protein (PA domain of RNF128). Notch activation is represented as the mean fold-change over the control±s.d. of three independent biological replicates.
Target sequence in this assay (P46531 19-1664 limits assumed): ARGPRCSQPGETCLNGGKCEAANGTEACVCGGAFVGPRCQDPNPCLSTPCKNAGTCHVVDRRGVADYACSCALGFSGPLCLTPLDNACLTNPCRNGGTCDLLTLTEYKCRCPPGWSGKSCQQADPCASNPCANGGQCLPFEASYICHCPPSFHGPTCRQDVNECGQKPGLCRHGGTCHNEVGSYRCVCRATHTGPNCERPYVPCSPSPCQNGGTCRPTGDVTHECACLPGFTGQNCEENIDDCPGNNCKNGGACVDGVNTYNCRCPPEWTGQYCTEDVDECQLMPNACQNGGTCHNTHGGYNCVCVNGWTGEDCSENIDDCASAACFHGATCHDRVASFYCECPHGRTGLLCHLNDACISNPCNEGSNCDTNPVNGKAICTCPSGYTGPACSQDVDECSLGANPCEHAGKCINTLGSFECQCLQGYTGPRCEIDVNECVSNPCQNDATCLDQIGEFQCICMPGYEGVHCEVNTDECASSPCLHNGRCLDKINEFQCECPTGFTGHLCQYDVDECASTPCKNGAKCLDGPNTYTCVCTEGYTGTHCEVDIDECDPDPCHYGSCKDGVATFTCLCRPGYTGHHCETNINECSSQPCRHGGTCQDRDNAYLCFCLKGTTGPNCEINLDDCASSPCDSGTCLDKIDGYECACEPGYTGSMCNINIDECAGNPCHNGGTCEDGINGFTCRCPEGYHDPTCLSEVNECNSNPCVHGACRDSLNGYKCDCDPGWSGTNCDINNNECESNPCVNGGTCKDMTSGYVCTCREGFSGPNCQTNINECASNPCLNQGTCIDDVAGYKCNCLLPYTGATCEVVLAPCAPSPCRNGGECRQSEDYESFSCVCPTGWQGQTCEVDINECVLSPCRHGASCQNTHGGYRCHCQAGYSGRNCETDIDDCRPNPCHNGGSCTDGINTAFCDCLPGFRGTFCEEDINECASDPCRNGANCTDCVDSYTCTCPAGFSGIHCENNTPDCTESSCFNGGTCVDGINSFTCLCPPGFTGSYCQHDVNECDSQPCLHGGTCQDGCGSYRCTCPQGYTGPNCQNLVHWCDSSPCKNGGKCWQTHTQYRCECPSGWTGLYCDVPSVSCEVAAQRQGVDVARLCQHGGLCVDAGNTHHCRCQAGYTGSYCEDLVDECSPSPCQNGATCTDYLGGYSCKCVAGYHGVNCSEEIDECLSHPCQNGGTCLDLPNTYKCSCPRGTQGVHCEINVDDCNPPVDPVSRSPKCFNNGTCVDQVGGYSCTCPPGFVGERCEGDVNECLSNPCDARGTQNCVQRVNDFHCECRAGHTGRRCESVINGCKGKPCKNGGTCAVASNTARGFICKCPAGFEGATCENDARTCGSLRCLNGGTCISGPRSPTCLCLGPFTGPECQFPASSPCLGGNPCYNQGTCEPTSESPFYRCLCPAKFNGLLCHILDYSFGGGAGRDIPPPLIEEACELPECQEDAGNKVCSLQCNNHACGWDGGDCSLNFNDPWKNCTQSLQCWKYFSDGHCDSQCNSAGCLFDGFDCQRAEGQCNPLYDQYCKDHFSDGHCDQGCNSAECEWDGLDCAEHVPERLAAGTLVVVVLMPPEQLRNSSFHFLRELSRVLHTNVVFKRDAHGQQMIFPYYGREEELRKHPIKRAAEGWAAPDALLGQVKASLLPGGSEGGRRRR
Target sequence in this assay (P46531 1665-1756 limits assumed): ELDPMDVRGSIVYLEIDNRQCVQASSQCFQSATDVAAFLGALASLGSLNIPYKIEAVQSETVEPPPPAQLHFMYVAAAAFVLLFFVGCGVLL

Notch3 = experiment: as above; type: cell-based, human; details: 50 nM immobilized
Sequence of Notch3 (Q9UM47 197-505 limits assumed): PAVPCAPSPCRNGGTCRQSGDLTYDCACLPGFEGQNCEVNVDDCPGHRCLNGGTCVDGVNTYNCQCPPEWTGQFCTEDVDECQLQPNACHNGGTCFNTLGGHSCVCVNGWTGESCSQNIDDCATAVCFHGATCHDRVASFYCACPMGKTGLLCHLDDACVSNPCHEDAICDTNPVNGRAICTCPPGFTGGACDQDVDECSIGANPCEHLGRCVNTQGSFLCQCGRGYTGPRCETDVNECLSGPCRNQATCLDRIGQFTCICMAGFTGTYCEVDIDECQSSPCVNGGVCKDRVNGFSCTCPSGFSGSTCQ
Method: as §1

Notch2 [2] = experiment: as above; type: cell-based, human; details: 50 nM immobilized
Sequence of Notch2 (Q04721 221-530 limits assumed): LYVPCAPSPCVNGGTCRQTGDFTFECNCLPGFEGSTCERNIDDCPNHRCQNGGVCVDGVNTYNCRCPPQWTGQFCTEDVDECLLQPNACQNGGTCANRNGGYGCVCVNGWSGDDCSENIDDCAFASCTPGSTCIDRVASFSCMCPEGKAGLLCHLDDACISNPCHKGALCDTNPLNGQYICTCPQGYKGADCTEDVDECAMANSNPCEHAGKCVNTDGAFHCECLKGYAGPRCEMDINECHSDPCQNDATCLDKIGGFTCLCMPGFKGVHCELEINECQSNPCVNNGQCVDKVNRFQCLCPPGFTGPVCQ
Method: as §1

Notch1 [3] = experiment: Kinetics for Notch activation assay (time course, CHO-K1 N1-Gal4); type: cell-based; details: immobilized at 50 nM; most pronounced in first 4 to 8 hours
Method: 96-well tissue culture plates (Coastar) were pre-coated using ligand-oriented coupling as described above with 50 nM of DLL4 biotinylated variants. CHO-K1 N1-Gal4 reporter cells were detached with trypsin-EDTA, washed with DPBS, and 200 μL of α-MEM media containing 30,000 cells were added into wells. Notch activation was analyzed as end-points for 0, 4, 8, 12, 16, 20, and 24-hour measurements. Desired time point wells containing CHO-K1 N1-Gal4 reporter cells were washed once with 200 μL DPBS, detached with trypsin-EDTA, and quenched with 200 μL of α-MEM media. Next, reporter cells were resuspended and analyzed by flow cytometry reading the fluorescence of H2B-mCitrine (BD Accuri C6 Plus). Every time point represents the mean fluorescence intensity of Notch activation as percentage+s.d. of three independent biological replicates. Notch activation was reference-subtracted from a well containing streptavidin, BSA and CHO-K1 N1-Gal4 cells.
Target sequence in this assay (P46531 295-488 limits assumed): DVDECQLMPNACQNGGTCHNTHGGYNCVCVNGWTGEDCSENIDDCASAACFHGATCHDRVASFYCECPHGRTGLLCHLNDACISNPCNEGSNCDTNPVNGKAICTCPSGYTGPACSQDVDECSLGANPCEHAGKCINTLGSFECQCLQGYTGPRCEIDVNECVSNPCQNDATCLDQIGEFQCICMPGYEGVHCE

CD8+ T cells [4] = experiment: Quantitative real-time PCR of activation markers in CD8+ T cells; type: cell-based, human; details: K32 loaded with 0.0125 μg/mL OKT3, over four days
Method: Human CD8^+ T cells were co-cultured with K32-DLL4 cells for 96 hours and positively enriched by MACS column (Invitrogen Kit). Total RNA was isolated from CD8^+ T cells using TRIzol (Life Technologies). Reverse transcription reaction was performed using Verso cDNA Synthesis Kit (Thermo Scientific). Quantitative PCR reactions were prepared by using Bio-Rad SYBR green master mix and performed on an Applied Biosystems thermocycler (7900 HT). Relative expression was calculated using the ΔΔCt method and normalized to B2M levels. The data represent the mean quantity of mRNA (in-fold) for different T cell markers±s.e.m. of four independent biological replicates. Pair primers used were: […]

CD8+ T cells [5] = experiment: Co-culture assay for IFNγ in T cells (K32 aAPCs expressing ligand); type: cell-based, human; details: 96 h, P=0.047
Method: Functional assays for human CD8^+ T cells were performed in co-culture with K562 cells expressing human CD32 (K32 cells) generated as described before7. Briefly, cells were γ-irradiated (100Gy) and washed twice with PBS before being loaded with OKT3 (0.0125-0.5 μg/mL, BioXcell) antibody at RT for 10 min. Human CD8^+ T cells were negatively isolated from PBMC and labeled with 5 μM of Cell Trace Violet (Invitrogen) according to manufacturer's specifications. Next, CD8^+ T cells were co-cultured with K32 cells at ratio 1:10 (T cell:K32). The frequency of proliferating T cells was determined after 96 hours by flow cytometry using a CytoFLEX II (Beckman Coulter). Zombie Green (Biolegend) was used for life/dead cell staining to discard dead cells from the analysis. A set of samples were additionally incubated with Golgi stop (BD) at 0.5 μL/well for 5 hours and washed with PBS for detection of intracellular IFNγ using anti-hIFNγ APC antibody (Biolegend). The frequency of IFNγ positive cells was analyzed by flow cytometry (CytoFLEX II, Beckman Coulter). Dead cells were excluded from the analysis by staining with Zombie green (Biolegend). The data represent the mean percentage of proliferating T cells or IFNγ^+ T cells±s.e.m. of four independent biological replicates.

Notch2 [6] = biological target: T1, Notch2 (Homo sapiens, UniProt Q04721); experiment: Immunoblot of cleaved Notch2 in CD8+ T cells; type: cell-based; details: CD8+ T cells after 96 hours with K32 cells
T1 construct: endogenous in cells; host or cells: primary human CD8+ T cells from PBMC
T1 sequence (Q04721 26-2471): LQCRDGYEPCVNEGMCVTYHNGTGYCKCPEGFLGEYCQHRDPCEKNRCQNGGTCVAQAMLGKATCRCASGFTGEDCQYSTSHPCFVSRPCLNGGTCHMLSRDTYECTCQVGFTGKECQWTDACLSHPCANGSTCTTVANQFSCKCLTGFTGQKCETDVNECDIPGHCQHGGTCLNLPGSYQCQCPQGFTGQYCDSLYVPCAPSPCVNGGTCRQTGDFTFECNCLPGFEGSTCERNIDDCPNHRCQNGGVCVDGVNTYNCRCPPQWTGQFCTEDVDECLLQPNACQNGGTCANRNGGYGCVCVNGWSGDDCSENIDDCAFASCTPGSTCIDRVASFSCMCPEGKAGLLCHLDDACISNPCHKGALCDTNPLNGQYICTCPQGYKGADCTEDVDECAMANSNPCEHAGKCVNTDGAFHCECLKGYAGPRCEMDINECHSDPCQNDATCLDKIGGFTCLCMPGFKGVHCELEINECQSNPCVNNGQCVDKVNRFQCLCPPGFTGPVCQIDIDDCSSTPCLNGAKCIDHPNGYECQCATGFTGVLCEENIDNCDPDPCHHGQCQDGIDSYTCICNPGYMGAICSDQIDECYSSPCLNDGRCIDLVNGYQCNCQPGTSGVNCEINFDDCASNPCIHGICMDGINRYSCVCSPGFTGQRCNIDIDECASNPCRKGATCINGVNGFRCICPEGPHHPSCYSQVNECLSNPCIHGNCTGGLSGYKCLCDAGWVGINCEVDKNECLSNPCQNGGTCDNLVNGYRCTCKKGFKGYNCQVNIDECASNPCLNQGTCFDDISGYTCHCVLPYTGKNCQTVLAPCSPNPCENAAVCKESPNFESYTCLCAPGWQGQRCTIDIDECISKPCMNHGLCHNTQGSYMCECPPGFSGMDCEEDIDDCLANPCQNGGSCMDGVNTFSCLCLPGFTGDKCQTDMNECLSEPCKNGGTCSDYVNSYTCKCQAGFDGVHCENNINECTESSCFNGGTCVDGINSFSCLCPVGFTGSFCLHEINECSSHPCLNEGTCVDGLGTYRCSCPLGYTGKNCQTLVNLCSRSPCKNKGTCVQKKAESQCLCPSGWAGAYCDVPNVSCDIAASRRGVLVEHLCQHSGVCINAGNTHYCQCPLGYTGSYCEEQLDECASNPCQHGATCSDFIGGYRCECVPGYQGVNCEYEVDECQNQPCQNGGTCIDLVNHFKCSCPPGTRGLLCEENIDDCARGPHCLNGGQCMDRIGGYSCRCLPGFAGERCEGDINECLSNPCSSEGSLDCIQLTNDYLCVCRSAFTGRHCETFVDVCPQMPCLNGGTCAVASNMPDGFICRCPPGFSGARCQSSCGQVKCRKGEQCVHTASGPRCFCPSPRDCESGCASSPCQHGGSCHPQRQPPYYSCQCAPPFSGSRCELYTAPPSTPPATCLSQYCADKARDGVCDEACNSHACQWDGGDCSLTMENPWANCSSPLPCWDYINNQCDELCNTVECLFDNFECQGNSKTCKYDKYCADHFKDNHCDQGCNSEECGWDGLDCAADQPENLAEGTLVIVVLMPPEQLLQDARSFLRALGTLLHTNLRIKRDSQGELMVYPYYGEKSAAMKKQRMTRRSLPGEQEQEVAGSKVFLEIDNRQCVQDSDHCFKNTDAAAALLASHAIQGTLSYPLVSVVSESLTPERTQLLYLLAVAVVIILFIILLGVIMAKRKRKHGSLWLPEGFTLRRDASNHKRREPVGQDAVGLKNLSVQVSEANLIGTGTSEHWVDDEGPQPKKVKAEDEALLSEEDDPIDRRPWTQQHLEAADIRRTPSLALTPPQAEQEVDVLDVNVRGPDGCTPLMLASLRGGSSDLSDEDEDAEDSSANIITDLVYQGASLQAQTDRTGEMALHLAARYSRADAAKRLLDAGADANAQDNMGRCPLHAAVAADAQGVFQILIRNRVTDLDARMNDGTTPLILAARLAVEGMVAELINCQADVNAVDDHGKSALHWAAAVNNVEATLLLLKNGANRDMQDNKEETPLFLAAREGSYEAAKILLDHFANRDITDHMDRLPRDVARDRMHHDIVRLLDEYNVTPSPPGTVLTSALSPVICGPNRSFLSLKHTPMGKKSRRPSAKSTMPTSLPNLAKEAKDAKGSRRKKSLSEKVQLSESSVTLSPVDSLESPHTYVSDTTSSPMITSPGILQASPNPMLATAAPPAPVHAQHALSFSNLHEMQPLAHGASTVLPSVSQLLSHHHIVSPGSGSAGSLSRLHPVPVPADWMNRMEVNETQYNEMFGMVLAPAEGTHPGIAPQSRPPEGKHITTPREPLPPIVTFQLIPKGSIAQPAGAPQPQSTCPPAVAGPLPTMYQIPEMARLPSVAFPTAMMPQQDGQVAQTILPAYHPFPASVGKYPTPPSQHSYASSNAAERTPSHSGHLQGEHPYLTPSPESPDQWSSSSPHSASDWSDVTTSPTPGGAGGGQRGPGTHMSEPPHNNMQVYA
Excerpt: For detection of Notch activation in CD8^+ T cells, following co-culture with K32 cell lines, CD8^+ T cells were positively enriched by Magnisort Human CD8^+ T cell positive selection Kit (Invitrogen). Nuclear fraction was isolated using NE-PER Nuclear and Cytoplasmic extraction kit (ThermoFisher). Equal protein amounts of nuclear cell lysates were run on 4-20% gradient Tris-glycine gels (Novex-Invitrogen), transferred to PVDF membranes using an iBlot Gel Transfer Device (ThermoFisher), and immunoblotted with antibodies anti-cleaved Notch1 (Val1744 rabbit mAb, Cell Signaling Technology, 1:1,000), anti-Notch2 (D76A6 rabbit mAb, Cell Signaling Technology, 1:1,000), and anti-β Actin (mouse mAb, Sigma, 1:20,000). Secondary antibodies anti-IgG (anti-rabbit or anti-mouse, GE Healthcare, 1:5,000) conjugated to horseradish peroxidase (HRP) were used for detection of proteins using ECL Western Blot Substrate Reagent (Thermo Fisher Scientific). Images were acquired using a Chemidoc Imaging System and analyzed with Image-Lab software (Bio-Rad).

Notch1 [7] = experiment: Notch activation with streptavidin-coated polystyrene beads (CHO-K1 N1-Gal4); type: cell-based; details: 25 μm beads, ratio 1:1 with reporter cells
Method: Biotinylated WT DLL4 or Delta^MAX (26 μg) were coated in 1.33 mg of streptavidin-coated polystyrene beads for 1 hour at 4° C. in DPBS+0.1% BSA. The beads were washed three times with 500 μL of DPBS+0.1% BSA before and after coating. DLL4 pre-coated beads were counted in the microscope and 100 μL containing 30,000 beads combined in ratio 1:1 with 100 μL of α-MEM with CHO-K1 N1-Gal4 reporter cell lines in 96-well tissue culture plates. The plate was incubated for 24 hours at 37° C., 5% CO2, and Notch activation measure by flow cytometry. The data represent Notch activation as a function of mean fluorescent intensity±s.d. of three biological replicates.
Target sequence in this assay (P46531 295-488 limits assumed): as the sequence (P46531 295-488 limits assumed) above

B1: Delta^MAX: engineered human DLL4 consensus variant with 10 mutations combining DLL4.v1 and DLL4.v2 mutations; sequence matches SEQ ID NO: 4/10 (protein)
chain: SSVFQLQLQEFINERGVLASGRPCEPGCRTFFRVCLKHFQAVVSPGPCTFGTVSTPVLGTNSFAVRDDSSGGGRNPLQLPLNFTWPGTFSLIIEAWHAPGDDLRPEALPPDALISKFAIQGSLAVGQNWLLDEQTSTLTRLRYSYRVICSDNYYGDNCSRLCKKRNDYFGHYVCQPDGNPSCLPGWTGEYCQQPICLSGCHEQNGYCSKPAECLCRPGWQGRLCNECIPHPGCRHGTCSTPWQCLCDEGWGGLYCDQDLNYCTHHSPCKNGATCRNSGPRSYTCTCRPGYTGVDCELELSECDSNPCRNGGSCKDQEDGYHCLCPPGYYGLHCEHSTLSCADSPCFNGGSCRERNQGANYACECPPNFTGSNCE
With B1 the “increase in Notch1 signaling vs WT DLL4” value (Notch1 [1]) was 2 fold, the “increase in Notch3 signaling vs WT DLL4” value (Notch3) was 3 fold and the “increase in Notch2 signaling vs WT DLL4” value (Notch2 [2]) was 2.5 fold. For the same molecule, the “speed of Notch1 activation compared to WT DLL4” value (Notch1 [3]) was “more rapidly”, the “Granzyme B mRNA level vs WT DLL4 or mock” value (CD8+ T cells [4]) was “increased levels” and the “Hes-4 (Notch target) expression vs WT DLL4 or mock” value (CD8+ T cells [4]) was “elevated expression”. For the same molecule, the “IFNγ mRNA level vs WT DLL4 or mock” value (CD8+ T cells [4]) was “increased levels”, the “increase of IFNγ secretion from CD8+ T cells compared with WT DLL4” value (CD8+ T cells [5]) was 10-15% and the “Notch2 activation (cleaved ICD) relative to WT DLL4” value (Notch2 [6]) was “increased”. For the same molecule, the “reporter activity vs DLL4 microbeads” value (Notch1 [7]) was 4.5 fold.
